# The DeepSol protein solubility set
# Assay: soluble on expression in E. coli; label from the status in PepcDB or PDB records
row,Sequence,soluble on expression in E. coli
1,MDEEYDAIVLGTGLKECIISGMLSVSGKKVLHIDRNNYYGGESASLTPLEQLYEKFHGPQAKPQQEMGRGRDWNVDLIPKFLMANGPLVKLLIHTGVTRYLEFKSIEASFVVKGGKIYKVPADEMEALATSLMGMFEKRRFKKFLVWVQQFDENKEDTWQGLDPHNSTMQQVYEKFGLDENTADFTGHALALYRDDEHKNQPYAPAVEKIRLYSDSLARYGKSPYLYPLYGLGELPQGFARLSAIYGGTYMLDKPVDEIVMENGKAIGVKCGDEIVRGKQIYCDPSYAKDRVKKTGQVVRAICLLNHPIPNTNDAQSCQIIIPQKQVGRHYDIYISCCSNTNMVTPKGWYLAMVSTTVETANPEAEVLPGLQLLGAIAEKFIQISDVYEPSDLGSESQIFISQSYDATTHFETTCKDVLNMFERGTTKEFDFTNITHLSLNDQE,not soluble
2,MDEFIIKRAKELQGYIVEKRRDFHMYPELKYEEERTSKIVEEELKKLGYEVVRTAKTGVIGILKGKEDGKTVALRADMDALPIQEENDVPYKSRVPGKMHACGHDAHTAMLLGAAKILAEMKDELQGTVKLIFQPAEEGGLGAKKIVEEGHLDDVDAIFGIHVWAELPSGIIGIKSGPLLASADAFRVLIKGKGGHGAAPHLSIDPIALAVDLVNAYQKIISREVDPLQPAVLSVTSIKAGTTFNVIPESAEILGTIRTFDEEVRDYIVRRMKEITENFANGMRCEGKFELTIEHIPPTINNEKLANFARDVLKVLGEIREPKPTMGAEDFAFYTTKAPGLFIFLGIRNEEKGIIYPHHHPKFNVDEDILWMGAAIHSLLTYHYLSL,soluble
3,MDESFDSSVVPGSLTSDDRAIFNEQTLKNGDENSKSSLEVMANCVYLANSTILRERKVIPAEYFQDFQVYGDVSGYTLRQDIPEGRSVSSKLLASHDAIRQKLLQKLAIVVEESLNTNPVETFVWTFVYDSTTSASAEIGYGGRKSKFVVNYLNMDDTAQQFCKMFSELRNVLSLLRPLPRGLIPSMKVAYRGEPEFVPGFQQVDDFVNPEQINLGAVSFPHGNGFQFAYASKFMVEQPSAIRPPVEVSHFEDDLLNSTITPIEVVRDNTMNCAENPELDEIYFSPGRQEVRMDEDVANESIRCNPSMASEMMVLQSEYNVLIADNDEVPMVVERERSPIVKAAKKRSTRAPAVPITPTEPASPVESPVKEQPQKAPKAQMRRSSKRTTKNNERCEQKEEEPIVNPKRRSARRLVPPVEVDEQPEEQNDDDAQNSLQIDSDAQNSLQIDSDAIITSPEKRNESKSAIPEEAADLDNTTSEKQESSTARYGVSNTSINRKKPDPVANPVSEEAQVDLANGSIPDKRPRKRKYGRVSSILDVADLPTDDTVEEDVRESPIYGRVPSILDVARAEENDAQNDAQDAQNEIAVEGLADLSIDTEQHEEAAPINVTGHQSESVPIIVTEHQSEEAQTVVTEQPAGAASVIAAERHYGRVSSILDVAGSFADVDPSGAAPAIATERHYGRVSSILDVAGSLSDVDPQEDTESSTQNQSTSKKFKPNPPKAMRYGQSPNMPSRRGN,not soluble
4,MDEVNVIARITGVSRVRTFERDGREGRFISLDIMDATGSTTYTLWNNDVNLVEELGLKEGDAVKILWAQPRRRDDKVTLTHTSLTRVVPGLEHHHHHH,not soluble
5,MDEYSPKRHDIAQLKFLCETLYHDCLANLEESNHGWVNDPTSAVNLQLNELIEHIATFALNYKIKYNEDNKLIAQIDEYLDDTFMLFSSYGINTQDLQKWRKSGNRLFRCFVNATRANPVSLSCLEHHHHHH,not soluble
6,MDFGALPPEINSTRMYAGAGAAPLMAAGATWNGLAVELSTTASSVESVIMQLTTEQWLGPASMSMVVAAQPYLAWLTYTAESAAHAAAQAMASAAAFEAAFAMTVPPAEVAANRALLAALVATNVLGQNTPAIMATEAHYGEMWAQDALAMYGYAASSAAAGRLNPLITPSQTANMAGLAGQAAAVSHAAAASTVQQVGLGSLISNLPNAVMGFASPLTSAADAAGLGGIIQDIEELLGITFVQNAINGAVNTTAWFVMATIPNAVFLGHAFAALNPATVTAAADAVPAAAAAAGLAHTVTPVGVGGASLTASLGEASSVGGLSVPAGWSTAAPAMTSGTTALEGSGWAVPEEAGPVAAMPGMAGISGAAKGAGAYAGPRYGFKPIVMPKQVVV,not soluble
7,MDGIAEPVIIKDDASRFVFINDAACDLLGKDRNQLIGRTDHDILPGEQADRIVSLDRIVLSTSEGHELEEQITTPDGTQRTLLTKKRCVSIPAGSTQEKFVVVTIVDIT,not soluble
8,MDHQFGYGVEVTGLSPSVTHNDLIDFFSFSGTIQDIDIVRSGEQACTAYVMFKDSYSQETAVLLTGATILDQRVCITRWGQHHEEFDFWNATSRGFEDESDSQHYAQRSEFNAGEAVTKAQEVVKIMLATGFVLGKDALSKAKAFDESHGVSAAAVARVSQLEQRIGLTDKIFTGLEAVRMTDQRYHVSDTAKSAVFATGRTAAAAATSVVNSSYFSSGALWLSGALERAAKAASDLGTRGSRQ,soluble
9,MDHSLNSLNNFDFLARSFARMHAEGRPVDILAVTGNMDEEHRTWFCARYAWYCQQMMQARELELEH,soluble
10,MDHSPWQRCLSVLQEELPAQQFSMWIRPLQCVINDNVMTLYAPNRFVLDWVRDKYVNRINELLTINESNNPLLLRFDVGSKPTIDNSVTNSPVSRNTGGNESLFAKATSAPKVAEPESNIPKKTNVRLNYTFENFVEGKSNQLARAAASQVADNPGTAYNPLFIYGGTGLGKTHLLHAVGNGILLNKPNAKIAYMHSERFVQDMVRALQNNAMEKFKQYYRSVDALLIDDIQFFAGKERTQEEFFHTFNALLEGNQQVILTSDRYPKEINGVDDRLKSRFGWGLTLAIEPPELETRVAILKRKAQESQINLADEVAFFIAKRLRSNVRELEGALNRVIANANFTGRAITIDFVREALRDLLALQDKLVTIDNIQRTVAEYYKIKIADLLSKRRNRSVARPRQIAMALSKELTNHSLPEIGDAFGGRDHTTVLHACRKVKSLREETHDIKEDYSNLIRTLSSLEHHHHHH,not soluble
11,MDIFMTCSICGFTHNCICAHQPNLSSNIEFALLYHENERHKLTNTGKLLLNSLSNTTEYTWQRKEPPQALISKINQADTETWLLFPSKEPVLSSDFHHRHDPSKKQLFVLLDATWQEAKKMVNKSPWLKALPCLEIQTDEASRYHLRRNQSEGNLCTCEAGIEVLEMVKEPENAQALSCYYDQFLTVFQAERSGHKFTSLEHHHHHH,soluble
12,MDIKIAQESFPILVAENIYHCGYHSEKSYGAASYLIQHSQGNILVDSPRFTPPLVKRIEAMGGIKYMYLTHQDDVADHQKFAEHFQCQRILHTDEISAGTRNVEIQLTGLEPFPLQPDVLIIPVPGHTKGHTVLLYKNKFLFTGDHLAWSENRHQLTAFRDVCWYSWAEQIKSMRRLADYSFDWVLPGHGRRFHADVETMRQQMHKCIELMTDERQPLTFNSLEHHHHHH,not soluble
13,MDIKRYCPVTDSELPADHVYFKFRSEIEAAEAYLGLAISEGIKVRETREILDIIDTVYNSLSDPESKLNDFQEKRLNFTEEDWYDIKEKANNGNRWSLYMFLARSAVDSAVYWSYRMKETEEFKEIVKEEMISKLLKAGYVILRESLGEVRL,soluble
14,MDINQNYREAVKTIKEAILRSQYRAATSVNKEQLSLYYGIGRYVSKNSRIGFWGKGAIEQISSLLQKELPGLRGFSTSNIKNMRVFYEEWEPVLNRQPLAGDLVLDEKLLLSVIRQPLADEFNWSDFFSIGFSHHTEIISKAKTLEARLFYIHECAIRYWSKYTLRDYLKADLYSHRGTLPNNFAQTLPDTKQALKAVCSFKDEYLLDFINVEELDEQEEDLDEKIVEKSIVANVKKFIMTFGQDFSFIGNQYRVEVAGEEMFIDLLFFNRELNSLVAVELKSGKFRSSYLGQLNTYLSALDSYVRKPHENPSIGIILCREMNQTFVEFAVRDYNKPMGVATYRTSKDMPERLRNALPDIEELRKLL,not soluble
15,MDIRQLQFFVAIVRFGSFTKAAERLRVAQPAVSMAMKRLEEELDLVLFNRQERKVSLTAEGEIFLRHAEKILEEVASTETEMEELRGLAKGEVRVGIPPMMSAYFFPQIIRDFSNRYPELHLSVSGEGASKIQKMILDGELDMGVIAGASFPDTLELRRFLREEVIVCVPKNHHLAEMERLPLQEFARHPLIFYKEGYYLRELVFDVMRGAGLNPAIRFETNLYTLVKSLIRKGMGISVFLRMVVEEDDDLEAIPLDPPLYLDLQIAWKKYGYLSRANRAFVDFLLEQSARAHQPVGSCPARLVPAG,not soluble
16,MDKFIKQLDPNLDYINHEINDGKCYITVASNRKEVTCPFCGQSSSRIHSTYNRIFQDLPIQGNKVFIIIRNRKMFCDNHDCSHTTFAERFDFISYKAKKTRRLEDEIVRLSINCSSVAASKALKENVVDIGKSTVCNLLKKETLVVDKKTVTVVCIDDFAIKKRKSYGTIMIDIFTHQILDMIDSRDYETVCEWLKTYPNLSVISRDGSVIYNNAIANAHPEALQISDRFHLLKNLTSYITEYLKKRLKPQVLIQAVSQETKEIKTIRQADENRKLTLKEKYEKIKQLLLEGKCKTEICRSLNMDIRAYDKLMAMTAEKREKSFQTKKMIIHEERVKQKMERVNEVRELKGIGLSNREISRRTGLNRKTVSRYLDENFNPVHAAYGKKRNGKLTPYIKAIDEYLEKGIMGSYIEEKIREMGYEGSSSTVRDYITDWKKRRKKYYDKSREDGTKTETIKRENILKLLYQPIEKSKNN,soluble
17,MDKIASDKDLREPDAGLLLNIFDLYYDLASAPAQYAAKRAHILEAAKKASTWHIRHVAPKYKNYVVVIGESARSDYMNVYGFPLPDTPFLSQTKGLLINGYQSTAHATNLSLPQTLGLPGEPNNNIVSLAKQAGFRTAWLSNQGMLGHFANEISTYALRSDYPWFTQRGDYGKSAGLSDRLLLPAFKRVLIGNAGTKPRLIVMHLMGSHSDFCTRLDKDARRFQYQTEKISCYVSTIAQTDKFLEDTVKILNENKESWSLVYFSDHGLMHVGKGGERTLTHGAWKRQSYGVPLVKISSDDTRREMIKVRRSAFNFLRGFGSWTGIETDELPDDGYDFWGNVPDVQGEGNNLAFIDGLPDDPAPWYAGKGKSTKNTSKK,not soluble
18,MDKKPLNTLISATGLWMSRTGTIHKIKHHEVSRSKIYIEMACGDHLVVNNSRSSRTARALRHHKYRKTCKRCRVSDEDLNKFLTKANEDQTSVKVKVVSAPTRTKKAMPKSVARAPKPLENTEAAQAQPSGSKFSPAIPVSTQESVSVPASVSTSISSISTGATASALVKGNTNPITSMSAPVQASAPALTKSQTDRLEVLLNPKDEISLNSGKPFRELESELLSRRKKDLQQIYAEERENYLGKLEREITRFFVDRGFLEIKSPILIPLEYIERMGIDNDTELSKQIFRVDKNFCLRPMLAPNLYNYLRKLDRALPDPIKIFEIGPCYRKESDGKEHLEEFTMLNFCQMGSGCTRENLESIITDFLNHLGIDFKIVGDSCMVYGDTLDVMHGDLELSSAVVGPIPLDREWGIDKPWIGAGFGLERLLKVKHDFKNIKRAARSESYYNGISTNL,soluble
19,MDKKPSILIFIVAYNAESTIENVLMRIPADLLDDFDAEVLVIDDQSSDDTVLRCAETIQSGKIRFKTNVLVNPENQGYGGNQKVGYQYAIEHDFDCVALLHGDGQYAPEYLRDLITPVTKGEAEAVFGSRMMTPFGALKGGMPAYKFVGNKILTLFQNIMLKTSLSEFHSGYRAYSVKALKQIPFHLNTPDFHFDTEIIIQLILWGFRIAERPIPTYYGDEICYVNGLKYALDVVITTTKARMQRLGLFHECKYEVIHPHNSNGYPEAKLSIKSPSGNRILEHHHHHH,not soluble
20,MDKLSLEEKVDLLIENGIRILNKAYALEKKPVDMGHGVLLYPSEFHLIETAGKNPAENLTSISSRLGVTKGAISQMVKKLEKKGLVKKVRVPGNKKDVMLELTDFGREAFEWHKSLHESMEAGIRKELEGMSSSEMETFLRVYGHLERMLDRCMERYR,not soluble
21,MDLFLALRELGRPDQMNLSYLYLKKILEEELRDHDCQCQLNPDFTVTISCRVDGPHGALYIVPNSDFLKSSSFSDLSAFILNLREEIRRFGEFEAELQTGTG,not soluble
